The text below walks through data of the supplement of paper PMC9112550, “Optimization of the antimicrobial peptide Bac7 by deep mutational scanning” (BMC Biology, 2022).

In this series the test system is Escherichia coli TOP10. Kind of series: shrunken log2 fold change of peptide-encoding DNA abundance (4.5 h post-induction vs induction); higher = less antimicrobial activity (less host growth inhibition). The conditions noted are these: time post-induction: 4.5 h; library: site-saturation at positions 5, 18, 19, 20.
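Further: peptides expressed intracellularly from a pBAD plasmid library in pooled LB shake-flask culture, induced with 0.3% L-arabinose, DNA abundance read by NGS, three biological replicates, DESeq2 with apeglm shrinkage.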

For RRIRFRPPRLPRPRPRPEVKPRP, the “shrunken log2 fold change” value was -0.00444. For RRIRIRPPRLPRPRPRPHKMPRP the value was -0.237; for RRIRKRPPRLPRPRPRPMGIPRP, -0.00149. For the sequence RRIRFRPPRLPRPRPRPMEGPRP, the “shrunken log2 fold change” value was -0.0345. Turning to RRIRGRPPRLPRPRPRPIVGPRP, the “shrunken log2 fold change” value worked out at 0.00341. Under RRIRVRPPRLPRPRPRPGQCPRP stands -0.0287; under RRIRARPPRLPRPRPRPTNVPRP, 0.0619. Consider RRIRVRPPRLPRPRPRPVCRPRP, for which the “shrunken log2 fold change” value was -0.0404. For RRIRRRPPRLPRPRPRPHYLPRP the value was -0.156; for RRIRPRPPRLPRPRPRPNCTPRP, -0.0727; for RRIRCRPPRLPRPRPRPGQWPRP, -0.125. Consider RRIRRRPPRLPRPRPRPGAEPRP, for which the “shrunken log2 fold change” value was determined as 2.68. As for RRIRCRPPRLPRPRPRPYHEPRP, the “shrunken log2 fold change” value was -0.329. For the sequence RRIRVRPPRLPRPRPRPLWNPRP, the “shrunken log2 fold change” value is -0.197. For RRIRWRPPRLPRPRPRPDKHPRP the value was -0.243; for RRIRYRPPRLPRPRPRPPACPRP, -0.146; for RRIRMRPPRLPRPRPRPKNVPRP, -0.16.

Turning to RRIRWRPPRLPRPRPRPIPLPRP, the “shrunken log2 fold change” value was -0.121. Under RRIRWRPPRLPRPRPRPQPAPRP stands 0.812; under RRIRFRPPRLPRPRPRPAGAPRP, 0.515. RRIRGRPPRLPRPRPRPSQPPRP: the “shrunken log2 fold change” value was found to be 0.138. Under RRIRSRPPRLPRPRPRPDPEPRP stands 0.183.

As to RRIRARPPRLPRPRPRPIAAPRP, the “shrunken log2 fold change” value is 0.925. On to RRIRERPPRLPRPRPRPCAAPRP, for which the “shrunken log2 fold change” value was -0.244.

Take RRIRHRPPRLPRPRPRPKRKPRP: the “shrunken log2 fold change” value was determined as 0.0863.

With RRIRCRPPRLPRPRPRPMWEPRP, the “shrunken log2 fold change” value was -0.0554.

RRIRVRPPRLPRPRPRPYHIPRP: the “shrunken log2 fold change” value is -1.2.

On to RRIRHRPPRLPRPRPRPNMEPRP, for which the “shrunken log2 fold change” value is -0.0709. Under RRIRFRPPRLPRPRPRPCRCPRP stands -0.735.

Regarding RRIRMRPPRLPRPRPRPDYQPRP, the “shrunken log2 fold change” value was -0.304. For RRIRCRPPRLPRPRPRPFRQPRP the value was -0.0498; for RRIRGRPPRLPRPRPRPAISPRP, 0.296; for RRIRIRPPRLPRPRPRPVCHPRP, -0.179.

Turning to RRIRYRPPRLPRPRPRPDNTPRP, the “shrunken log2 fold change” value is -0.325. For RRIRGRPPRLPRPRPRPSWFPRP the value was 0.373. As for RRIRSRPPRLPRPRPRPWYFPRP, the “shrunken log2 fold change” value is -0.85. Under RRIRDRPPRLPRPRPRPKGHPRP stands 0.0517; under RRIRARPPRLPRPRPRPSCEPRP, 0.128.

Turning to RRIRFRPPRLPRPRPRPGYSPRP, the “shrunken log2 fold change” value is -0.934. On to RRIRCRPPRLPRPRPRPRSMPRP, for which the “shrunken log2 fold change” value was -0.0145. For RRIRARPPRLPRPRPRPPQVPRP the value was 0.162; for RRIRRRPPRLPRPRPRPDTIPRP, -0.15; for RRIRIRPPRLPRPRPRPLDIPRP, -0.216. Consider RRIRVRPPRLPRPRPRPMGDPRP, for which the “shrunken log2 fold change” value is -0.104. For RRIRTRPPRLPRPRPRPFYRPRP the value was -0.189. For RRIRHRPPRLPRPRPRPRCHPRP, the “shrunken log2 fold change” value was -0.555. Under RRIRPRPPRLPRPRPRPPPDPRP stands 0.622; under RRIRERPPRLPRPRPRPEIHPRP, -0.0198; under RRIRIRPPRLPRPRPRPDYAPRP, -0.154. For RRIRERPPRLPRPRPRPEWYPRP the value was 0.0172.
